# Measured values taken from paper PMC3893233.
# Tests used:
# Experiment in all cases: SPR
# [1] = molecular target: homo-DLE variant (of Table 1, compared with control mAb1)
# hemi-YWA variant = molecular target: hemi-YWA variant
# afucosyl mAb = molecular target: afucosyl mAb
# [2] = molecular target: homo-DLE variant (of Table 2, prepared by control mAb2)
# [3] = molecular target: homo-L235V/F243L/R292P/Y300L/P396L (VLPYLL) variant
substance,measurement,setting,value
"human FcγRIIIa^F158, extracellular region (from UniProt P08637 17-208) (receptor)",Kd,[1],5.5 nM
same,Kd,hemi-YWA variant,280 nM
"human FcγRIIIa^V158, extracellular region (receptor)",Fold KD = KD (IgG1)/KD (Fc variant),afucosyl mAb,45 fold
same,Fold KD = KD (control mAb2)/KD (Fc variant),[2],126 fold
same,Fold KD = KD (control mAb2)/KD (Fc variant),[3],33 fold
"human FcγRIa, extracellular region (from UniProt P12314 16-292) (receptor)",Fold KD = KD (control mAb2)/KD (Fc variant),[2],3.4 fold
"human FcγRIIa^R131, extracellular region (receptor)",Fold KD = KD (IgG1)/KD (Fc variant),afucosyl mAb,1.8 fold
same,Fold KD = KD (control mAb2)/KD (Fc variant),[2],2.9 fold
"human FcγRIIb, extracellular region (from UniProt P31994 43-217) (receptor)",Fold KD = KD (control mAb2)/KD (Fc variant),[2],6.7 fold
same,Fold KD = KD (control mAb2)/KD (Fc variant),[3],0.54 fold
"human FcγRIIa^H131, extracellular region (from UniProt P12318 34-217) (receptor)",Fold KD = KD (IgG1)/KD (Fc variant),afucosyl mAb,0.85 fold
same,Fold KD = KD (control mAb2)/KD (Fc variant),[2],1.4 fold
